Biological target: IL-1 receptor (human) (UniProt P14778)
Test: cell-based or functional assay

UniProt P14778, sequence (P14778 18-569): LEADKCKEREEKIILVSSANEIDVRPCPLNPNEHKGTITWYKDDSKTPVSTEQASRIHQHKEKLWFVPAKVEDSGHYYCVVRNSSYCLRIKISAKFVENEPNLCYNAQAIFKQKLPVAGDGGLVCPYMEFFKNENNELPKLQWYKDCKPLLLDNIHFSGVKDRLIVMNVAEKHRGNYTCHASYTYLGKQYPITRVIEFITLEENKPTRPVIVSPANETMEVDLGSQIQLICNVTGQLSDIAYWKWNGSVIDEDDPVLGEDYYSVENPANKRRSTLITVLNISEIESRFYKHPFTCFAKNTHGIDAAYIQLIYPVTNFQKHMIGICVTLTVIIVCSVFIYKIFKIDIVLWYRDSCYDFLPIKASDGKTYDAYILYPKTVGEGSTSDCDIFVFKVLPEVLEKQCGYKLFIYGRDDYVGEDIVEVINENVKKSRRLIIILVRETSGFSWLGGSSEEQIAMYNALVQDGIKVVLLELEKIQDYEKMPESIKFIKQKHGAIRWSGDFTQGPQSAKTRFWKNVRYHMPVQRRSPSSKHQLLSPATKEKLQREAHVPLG

Kineret® (anakinra), recombinant IL-1 receptor antagonist (IL-1Ra) (from UniProt P18510 26-177) (ligand)
IC50 (pM), inhibition of IL-1β induced IL-8 production in human whole blood: 53.4 pM

— US20110189172A1
